Publication PMC6931119

Molecular target: microtubules (human (endogenous in HEK293T)) (UniProt P68363)
Experiment: co-sedimentation; microtubule co-sedimentation assay of HEK293T cells with overexpressed Climp63-HA and GFP or GFP-Calu1; 37°C; P pellet = microtubule fraction, S supernatant = free tubulin fraction

Sequence of UniProt P68363 (P68363 whole entry, chain 1 of 2): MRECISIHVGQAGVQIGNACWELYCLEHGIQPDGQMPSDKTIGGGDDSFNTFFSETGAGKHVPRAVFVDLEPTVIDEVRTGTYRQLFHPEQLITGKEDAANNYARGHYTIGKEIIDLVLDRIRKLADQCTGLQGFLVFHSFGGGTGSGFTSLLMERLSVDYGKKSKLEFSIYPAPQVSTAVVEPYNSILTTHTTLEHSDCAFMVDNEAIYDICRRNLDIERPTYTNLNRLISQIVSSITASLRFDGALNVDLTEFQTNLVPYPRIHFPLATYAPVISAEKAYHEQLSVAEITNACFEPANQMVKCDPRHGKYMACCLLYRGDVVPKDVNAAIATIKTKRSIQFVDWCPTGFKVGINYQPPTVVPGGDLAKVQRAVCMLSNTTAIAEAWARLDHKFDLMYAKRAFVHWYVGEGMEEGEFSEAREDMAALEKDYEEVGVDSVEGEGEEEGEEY
Sequence of UniProt P68363 (P07437 whole entry, chain 2 of 2, further chain): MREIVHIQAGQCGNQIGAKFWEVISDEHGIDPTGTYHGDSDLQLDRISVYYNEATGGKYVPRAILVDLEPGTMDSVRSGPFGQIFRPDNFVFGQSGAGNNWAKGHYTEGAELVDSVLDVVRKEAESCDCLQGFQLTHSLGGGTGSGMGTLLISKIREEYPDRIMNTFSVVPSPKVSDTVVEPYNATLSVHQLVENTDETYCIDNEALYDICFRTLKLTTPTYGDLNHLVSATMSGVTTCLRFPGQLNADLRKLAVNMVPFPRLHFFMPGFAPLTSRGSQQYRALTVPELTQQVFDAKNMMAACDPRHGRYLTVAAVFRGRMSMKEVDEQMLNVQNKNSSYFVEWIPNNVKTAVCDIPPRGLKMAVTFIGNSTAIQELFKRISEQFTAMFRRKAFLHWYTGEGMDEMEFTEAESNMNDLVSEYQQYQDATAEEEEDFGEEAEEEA
Sequence of Climp63-HA (Q07065 whole entry): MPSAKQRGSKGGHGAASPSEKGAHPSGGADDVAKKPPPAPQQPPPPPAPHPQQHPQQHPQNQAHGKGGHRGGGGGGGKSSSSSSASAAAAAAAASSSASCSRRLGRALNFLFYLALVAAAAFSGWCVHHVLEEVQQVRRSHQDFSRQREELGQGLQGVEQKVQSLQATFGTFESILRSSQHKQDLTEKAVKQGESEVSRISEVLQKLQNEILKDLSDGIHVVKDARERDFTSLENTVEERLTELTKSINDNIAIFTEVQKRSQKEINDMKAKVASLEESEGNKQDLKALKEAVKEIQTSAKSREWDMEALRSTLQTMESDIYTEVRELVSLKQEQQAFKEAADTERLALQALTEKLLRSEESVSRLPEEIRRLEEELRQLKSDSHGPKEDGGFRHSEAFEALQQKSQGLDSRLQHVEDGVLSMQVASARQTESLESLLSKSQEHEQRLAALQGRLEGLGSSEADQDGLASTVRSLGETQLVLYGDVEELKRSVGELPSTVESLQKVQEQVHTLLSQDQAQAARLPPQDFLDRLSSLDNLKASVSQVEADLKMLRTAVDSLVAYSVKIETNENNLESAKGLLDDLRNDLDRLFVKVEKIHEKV

Climp63-HA (from UniProt Q07065 1-602) (natural protein)
percent of Climp63 in the pellet (microtubule fraction) at 37°C, GFP overexpressed: 60% | percent of Climp63 in the pellet (microtubule fraction) at 37°C, GFP-Calu1 overexpressed: 36%
